Several values for one entry are separate records, joined by “and”; a condition that tells them apart may be missing. Equal values may be shown once.
Key:
[1] = target: CPC I1-190 SB dloop del110-206;Borealin (UniProt Q9NQS7+O15392+Q53HL2); assay: EMSA; conditions: histone H3 T3ph (native ligation, H3T32C); EMSA: 20 nM NCP, 10 mM Tris pH 7.5, 250 mM NaCl, 1 mM MgCl2, 1 mM DTT, 1% glycerol, 0.1 mg/ml BSA, 1 h on ice; gel at 4 C. SPR buffer not in the material
[2] = target: H3T3 phosphorylated nucleosome core particle (H3T3ph NCP) (UniProt P62805); assay: mass photometry; CPC-NCP complexes diluted to 20 nM (legend of Fig. EV1D: 50 nM) in 20 mM HEPES pH 8.0, 50 mM NaCl, 1 mM EDTA, 1 mM DTT; Refeyn TwoMP; Gaussian fitting of mass populations
[3] = target: H3T3 phosphorylated nucleosome core particle (H3T3ph NCP) (UniProt P62805); assay: native gel or EMSA; 20 nM H3T3ph NCPs wrapped with centromeric α-satellite DNA; CPC 7.8 nM to 2 µM, 1 h on ice; 10 mM Tris pH 7.5, 250 mM NaCl, 1 mM MgCl2, 1 mM DTT, 1% glycerol, 0.1 mg/ml BSA; gel at 4 °C; unbound NCP band quantified, specific binding with Hill slope
[4] = target: CPC I1-190 6A SB R65A;R66A;K67A;K68A;R69A;R70A;INCENP (UniProt Q9NQS7+O15392+Q53HL2); assay: EMSA; conditions: histone H3 T3ph; EMSA: 20 nM NCP, 10 mM Tris pH 7.5, 250 mM NaCl, 1 mM MgCl2, 1 mM DTT, 1% glycerol, 0.1 mg/ml BSA, 1 h on ice; gel at 4 C. SPR buffer not in the material
[5] = target: CPC I1-190 6A SB dloop R65A;R66A;K67A;K68A;R69A;R70A;internal_change (UniProt Q9NQS7+O15392+Q53HL2); assay: EMSA; conditions: histone H3 T3ph; EMSA: 20 nM NCP, 10 mM Tris pH 7.5, 250 mM NaCl, 1 mM MgCl2, 1 mM DTT, 1% glycerol, 0.1 mg/ml BSA, 1 h on ice; gel at 4 C. SPR buffer not in the material

For “ACAGGATGTATATATGTGACACGTGCCTGGAGACTAGGGAGTAATCCCCTTGGCGGTTAAAACGCGGGGGACAGCGCGTACGTGCGTTTAAGCGGTGCTAGAGCTGTCTACGACCAATTGAGCGGCCTCGGCACCGGGATTCTCCAG (double strand) [H3T3ph NCP, Widom 601 147 bp]”, the fold decrease in binding affinity vs P1 (fold decrease in affinity vs P1) [1] was 12.

With “CPC_(I1-58SB) (containing INCENP 1-58, full-length Survivin and full-length Borealin) (from UniProt Q53HL2 1-280; O15392 1-142; Q9NQS7 1-58) (complex)” the stoichiometry N [2] was 2 CPC per NCP and 1 CPC per NCP.

With “CPC_(I1-58SBS266D) (containing INCENP 1-58, full-length Survivin and full-length Borealin dimer breaking mutant, S266D) (from UniProt Q53HL2 1-280; O15392 1-142; Q9NQS7 1-58) (complex)” the stoichiometry N [2] was 1 CPC per NCP and 2 CPC per NCP.

Substance “CPC_(I1-190 6ASB) (INCENP with RRKKRR mutated to AAAAAA) (from UniProt Q53HL2 1-280; O15392 1-142; Q9NQS7 1-190) (complex)” has a times weaker binding against CPC (I1-190SB) [3] of 1.5 times.

“CPC_(I1-190SB) (CPC containing INCENP 1-190, full-length Survivin and full-length Borealin) (from UniProt Q53HL2 1-280; O15392 1-142; Q9NQS7 1-190) (complex)” gave a stoichiometry N [2] of 2 CPC per NCP.

With H3T3ph NCP, alpha-satellite 147 bp the binding signal (fold weaker vs P1) [4] was 1.5 and the binding signal [5] was 13 fold.

— article PMC12624148
